Laboratory results published in patent US20220064329A1 (Novo Nordisk, published 2022).

T1: recombinant human activated Factor VII (FVIIa) (human, UniProt P08709 61-212; P08709 213-466, ten glutamate residues of the Gla domain may be gamma-carboxylated)
T1 construct: chains tethered by a disulfide bond; also called Factor VIIa; rFVIIa
T1 sequence 1: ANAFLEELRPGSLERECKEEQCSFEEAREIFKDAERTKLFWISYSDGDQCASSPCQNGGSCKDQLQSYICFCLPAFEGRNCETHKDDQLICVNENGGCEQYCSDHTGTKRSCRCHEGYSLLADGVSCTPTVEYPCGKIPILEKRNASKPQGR
T1 sequence 2: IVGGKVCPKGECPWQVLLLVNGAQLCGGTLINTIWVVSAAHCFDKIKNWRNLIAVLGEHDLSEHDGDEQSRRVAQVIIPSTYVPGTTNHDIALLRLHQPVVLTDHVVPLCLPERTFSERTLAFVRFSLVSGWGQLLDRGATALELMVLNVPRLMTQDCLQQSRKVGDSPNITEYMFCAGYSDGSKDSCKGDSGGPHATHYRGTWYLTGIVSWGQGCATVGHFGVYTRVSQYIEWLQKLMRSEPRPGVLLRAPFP


molecular target: T1, recombinant human activated Factor VII …; experiment: BLI (Fortebio)

Row | Binder | Kd
1 | VH SEQ ID NO 610 / VL SEQ ID NO 486 (antibody, IgG4, V domains shown, humanized 11F2; IgG4 S228P/kappa) VH: QVQLQESGPGLVKPSQTLSLTCTVSGGSITSDSAWSWIRQPPGKGLEWIGYIQYSGSTNYNPSLKSRVTISVDTSKNQFSLKLSSVTAADTAVYYCARSVNYYGNSFAVGYWGQGTLVTVSS VL: EIVLTQSPATLSLSPGERATLSCRASQGVSDYLHWYQQKPGQAPRLLIKYASQPATGIPARFSGSGSGTDFTLTISSLEPEDFGVYYCQNGHSFPLTFGQGTKLEIK | 17 nM
2 | VH SEQ ID NO 610 / VL SEQ ID NO 494 (antibody, IgG4, V domains shown, humanized 11F2; IgG4 S228P/kappa) VH: QVQLQESGPGLVKPSQTLSLTCTVSGGSITSDSAWSWIRQPPGKGLEWIGYIQYSGSTNYNPSLKSRVTISVDTSKNQFSLKLSSVTAADTAVYYCARSVNYYGNSFAVGYWGQGTLVTVSS VL: EIVLTQSPATLSLSPGERATLSCRASQGVSDYLHWYQQKPGQAPRLLIKYASQPATGIPARFSGSGSGTDFTLTISSLEPEDVAVYYCQNGHSFPLTFGQGTKLEIK | 17 nM
3 | VH SEQ ID NO 610 / VL SEQ ID NO 502 (antibody, IgG4, V domains shown, humanized 11F2; IgG4 S228P/kappa) VH: QVQLQESGPGLVKPSQTLSLTCTVSGGSITSDSAWSWIRQPPGKGLEWIGYIQYSGSTNYNPSLKSRVTISVDTSKNQFSLKLSSVTAADTAVYYCARSVNYYGNSFAVGYWGQGTLVTVSS VL: EIVLTQSPATLSLSPGERATLSCRASQGVSDYLHWYQQKPGQAPRLLIKYTSQPATGIPARFSGSGSGTDFTLTISSLEPEDFAVYYCQNGHSFPLTFGQGTKLEIK | 17 nM
4 | VH SEQ ID NO 618 / VL SEQ ID NO 310 (antibody, IgG4, V domains shown, humanized 11F2; IgG4 S228P/kappa) VH: QVQLQESGPGLVKPSQTLSLTCTVSGYSISSDSAWSWIRQFPGKGLEWIGYIQYSGSTNYNPSLKSRVTISRDTSKNQFSLKLSSVTAADTAVYYCARSVNYYGNSFAVGPWGQGTLVTVSS VL: EIVLTQSPATLSLSPGERATLSCRASQGISDYLAWYQQKPGQAPRLLIKYASQPATGIPARFSGSGSGTDFTLTISSLEPEDFAVYYCQNGHSFPLTFGQGTKLEIK | 12 nM
5 | VH SEQ ID NO 618 / VL SEQ ID NO 318 (antibody, IgG4, V domains shown, humanized 11F2; IgG4 S228P/kappa) VH: QVQLQESGPGLVKPSQTLSLTCTVSGYSISSDSAWSWIRQFPGKGLEWIGYIQYSGSTNYNPSLKSRVTISRDTSKNQFSLKLSSVTAADTAVYYCARSVNYYGNSFAVGPWGQGTLVTVSS VL: EIVLTQSPATLSLSPGERATLSCRASQGISDYLHWYQQKPGEAPRLLIKYTSQPATGIPARFSGSGSGTDFTLTISSLEPEDFAVYYCQNGHSFPLTFGQGTKLEIK | 1.1 nM
6 | VH SEQ ID NO 618 / VL SEQ ID NO 326 (antibody, IgG4, V domains shown, humanized 11F2; IgG4 S228P/kappa) VH: QVQLQESGPGLVKPSQTLSLTCTVSGYSISSDSAWSWIRQFPGKGLEWIGYIQYSGSTNYNPSLKSRVTISRDTSKNQFSLKLSSVTAADTAVYYCARSVNYYGNSFAVGPWGQGTLVTVSS VL: EIVLTQSPATLSLSPGERATLSCRASQGISDYLHWYQQKPGEAPRLLIKYTSQPATGIPARFSGSGSGTDFTLTISSLEPEDFGVYYCQNGHSFPLTFGAGTKLELK | 1.1 nM
7 | VH SEQ ID NO 618 / VL SEQ ID NO 334 (antibody, IgG4, V domains shown, humanized 11F2; IgG4 S228P/kappa) VH: QVQLQESGPGLVKPSQTLSLTCTVSGYSISSDSAWSWIRQFPGKGLEWIGYIQYSGSTNYNPSLKSRVTISRDTSKNQFSLKLSSVTAADTAVYYCARSVNYYGNSFAVGPWGQGTLVTVSS VL: EIVLTQSPATLSLSPGERATLSCRASQGISDYLHWYQQKPGQAPRLLIKYASQPATGIPARFSGSGSGTDFTLTISSLEPEDFAVYYCQNGHSFPLTFGQGTKLEIK | 1.3 nM
8 | VH SEQ ID NO 618 / VL SEQ ID NO 342 (antibody, IgG4, V domains shown, humanized 11F2; IgG4 S228P/kappa) VH: QVQLQESGPGLVKPSQTLSLTCTVSGYSISSDSAWSWIRQFPGKGLEWIGYIQYSGSTNYNPSLKSRVTISRDTSKNQFSLKLSSVTAADTAVYYCARSVNYYGNSFAVGPWGQGTLVTVSS VL: EIVLTQSPATLSLSPGERATLSCRASQGISDYLHWYQQKPGQAPRLLIKYTSQPATGIPARFSGSGSGRDFTLTISSLEPEDFAVYYCQNGHSFPLTFGAGTKLELK | 1.2 nM
9 | VH SEQ ID NO 618 / VL SEQ ID NO 350 (antibody, IgG4, V domains shown, humanized 11F2; IgG4 S228P/kappa) VH: QVQLQESGPGLVKPSQTLSLTCTVSGYSISSDSAWSWIRQFPGKGLEWIGYIQYSGSTNYNPSLKSRVTISRDTSKNQFSLKLSSVTAADTAVYYCARSVNYYGNSFAVGPWGQGTLVTVSS VL: EIVLTQSPATLSLSPGERATLSCRASQGISDYLHWYQQKPGQAPRLLIKYTSQPATGIPARFSGSGSGTDFTLTISSLEPEDFAVYYCQNGHSFPLTFGAGTKLELK | 1 nM
10 | VH SEQ ID NO 618 / VL SEQ ID NO 358 (antibody, IgG4, V domains shown, humanized 11F2; IgG4 S228P/kappa) VH: QVQLQESGPGLVKPSQTLSLTCTVSGYSISSDSAWSWIRQFPGKGLEWIGYIQYSGSTNYNPSLKSRVTISRDTSKNQFSLKLSSVTAADTAVYYCARSVNYYGNSFAVGPWGQGTLVTVSS VL: EIVLTQSPATLSLSPGERATLSCRASQGISDYLHWYQQKPGQAPRLLIKYTSQPATGIPARFSGSGSGTDFTLTISSLEPEDFAVYYCQNGHSFPLTFGQGTKLEIK | 0.95 nM
11 | VH SEQ ID NO 618 / VL SEQ ID NO 366 (antibody, IgG4, V domains shown, humanized 11F2; IgG4 S228P/kappa) VH: QVQLQESGPGLVKPSQTLSLTCTVSGYSISSDSAWSWIRQFPGKGLEWIGYIQYSGSTNYNPSLKSRVTISRDTSKNQFSLKLSSVTAADTAVYYCARSVNYYGNSFAVGPWGQGTLVTVSS VL: EIVLTQSPATLSLSPGERATLSCRASQGLSDYLAWYQQKPGEAPRLLIKYASQPATGIPARFSGSGSGTDFTLTISSLEPEDFAVYYCQNGHSFPLTFGQGTKLEIK | 21 nM
12 | VH SEQ ID NO 618 / VL SEQ ID NO 382 (antibody, IgG4, V domains shown, humanized 11F2; IgG4 S228P/kappa) VH: QVQLQESGPGLVKPSQTLSLTCTVSGYSISSDSAWSWIRQFPGKGLEWIGYIQYSGSTNYNPSLKSRVTISRDTSKNQFSLKLSSVTAADTAVYYCARSVNYYGNSFAVGPWGQGTLVTVSS VL: EIVLTQSPATLSLSPGERATLSCRASQGLSDYLHWYQQKPGEAPRLLIKYASQPATGIPARFSGSGSGTDFTLTISSLEPEDFAVYYCQNGHSFPLTFGQGTKLEIK | 1.1 nM
13 | VH SEQ ID NO 618 / VL SEQ ID NO 390 (antibody, IgG4, V domains shown, humanized 11F2; IgG4 S228P/kappa) VH: QVQLQESGPGLVKPSQTLSLTCTVSGYSISSDSAWSWIRQFPGKGLEWIGYIQYSGSTNYNPSLKSRVTISRDTSKNQFSLKLSSVTAADTAVYYCARSVNYYGNSFAVGPWGQGTLVTVSS VL: EIVLTQSPATLSLSPGERATLSCRASQGVSDYLAWYQQKPGEAPRLLIKYASQPATGIPARFSGSGSGTDFTLTISSLEPEDFAVYYCQNGHSFPLTFGQGTKLEIK | 33 nM
14 | VH SEQ ID NO 618 / VL SEQ ID NO 398 (antibody, IgG4, V domains shown, humanized 11F2; IgG4 S228P/kappa) VH: QVQLQESGPGLVKPSQTLSLTCTVSGYSISSDSAWSWIRQFPGKGLEWIGYIQYSGSTNYNPSLKSRVTISRDTSKNQFSLKLSSVTAADTAVYYCARSVNYYGNSFAVGPWGQGTLVTVSS VL: EIVLTQSPATLSLSPGERATLSCRASQGVSDYLAWYQQKPGEAPRLLIKYTSQPATGIPARFSGSGSGTDFTLTISSLEPEDFAVYYCQNGHSFPLTFGQGTKLEIK | 180 nM
15 | VH SEQ ID NO 618 / VL SEQ ID NO 406 (antibody, IgG4, V domains shown, humanized 11F2; IgG4 S228P/kappa) VH: QVQLQESGPGLVKPSQTLSLTCTVSGYSISSDSAWSWIRQFPGKGLEWIGYIQYSGSTNYNPSLKSRVTISRDTSKNQFSLKLSSVTAADTAVYYCARSVNYYGNSFAVGPWGQGTLVTVSS VL: EIVLTQSPATLSLSPGERATLSCRASQGVSDYLAWYQQKPGQAPRLLIKYASQPATGIPARFSGSGSGTDFTLTISSLEPEDFAVYYCQNGHSFPLTFGAGTKLEIK | 24 nM
16 | VH SEQ ID NO 618 / VL SEQ ID NO 414 (antibody, IgG4, V domains shown, humanized 11F2; IgG4 S228P/kappa) VH: QVQLQESGPGLVKPSQTLSLTCTVSGYSISSDSAWSWIRQFPGKGLEWIGYIQYSGSTNYNPSLKSRVTISRDTSKNQFSLKLSSVTAADTAVYYCARSVNYYGNSFAVGPWGQGTLVTVSS VL: EIVLTQSPATLSLSPGERATLSCRASQGVSDYLAWYQQKPGQAPRLLIKYASQPATGIPARFSGSGSGTDFTLTISSLEPEDFAVYYCQNGHSFPLTFGQGTKLEIK | 24 nM
17 | VH SEQ ID NO 618 / VL SEQ ID NO 422 (antibody, IgG4, V domains shown, humanized 11F2; IgG4 S228P/kappa) VH: QVQLQESGPGLVKPSQTLSLTCTVSGYSISSDSAWSWIRQFPGKGLEWIGYIQYSGSTNYNPSLKSRVTISRDTSKNQFSLKLSSVTAADTAVYYCARSVNYYGNSFAVGPWGQGTLVTVSS VL: EIVLTQSPATLSLSPGERATLSCRASQGVSDYLAWYQQKPGQAPRLLIKYASQPATGIPARFSGSGSGTDFTLTISSLEPEDFAVYYCQQGHSFPLTFGQGTKLEIK | 5800 nM
18 | VH SEQ ID NO 618 / VL SEQ ID NO 430 (antibody, IgG4, V domains shown, humanized 11F2; IgG4 S228P/kappa) VH: QVQLQESGPGLVKPSQTLSLTCTVSGYSISSDSAWSWIRQFPGKGLEWIGYIQYSGSTNYNPSLKSRVTISRDTSKNQFSLKLSSVTAADTAVYYCARSVNYYGNSFAVGPWGQGTLVTVSS VL: EIVLTQSPATLSLSPGERATLSCRASQGVSDYLAWYQQKPGQAPRLLIKYASQPATGIPARFSGSGSGTDFTLTISSLEPEDFGVYYCQNGHSFPLTFGQGTKLEIK | 110 nM
19 | VH SEQ ID NO 618 / VL SEQ ID NO 438 (antibody, IgG4, V domains shown, humanized 11F2; IgG4 S228P/kappa) VH: QVQLQESGPGLVKPSQTLSLTCTVSGYSISSDSAWSWIRQFPGKGLEWIGYIQYSGSTNYNPSLKSRVTISRDTSKNQFSLKLSSVTAADTAVYYCARSVNYYGNSFAVGPWGQGTLVTVSS VL: EIVLTQSPATLSLSPGERATLSCRASQGVSDYLAWYQQKPGQAPRLLIKYASQPATGIPARFSGSGSGTDFTLTISSLEPEDVAVYYCQNGHSFPLTFGQGTKLEIK | 34 nM
20 | VH SEQ ID NO 618 / VL SEQ ID NO 446 (antibody, IgG4, V domains shown, humanized 11F2; IgG4 S228P/kappa) VH: QVQLQESGPGLVKPSQTLSLTCTVSGYSISSDSAWSWIRQFPGKGLEWIGYIQYSGSTNYNPSLKSRVTISRDTSKNQFSLKLSSVTAADTAVYYCARSVNYYGNSFAVGPWGQGTLVTVSS VL: EIVLTQSPATLSLSPGERATLSCRASQGVSDYLAWYQQKPGQAPRLLIKYTSQPATGIPARFSGSGSGTDFTLTISSLEPEDFAVYYCQNGHSFPLTFGQGTKLEIK | 200 nM
